Source: US20260201067A1, “DPP3 INHIBITOR FOR IMPROVEMENT OF PULMONARY FUNCTION IN CRITICALLY ILL PATIENTS” (4TEEN4 Pharmaceuticals GmbH, priority 2022, published 2026)
“Also recorded” adds a separate entry of the source.

Key:
DPP3 = target: T1, DPP3 (Homo sapiens, UniProt Q9NY33); conditions: literature; cited from earlier work
T1 sequence (Q9NY33 1-737): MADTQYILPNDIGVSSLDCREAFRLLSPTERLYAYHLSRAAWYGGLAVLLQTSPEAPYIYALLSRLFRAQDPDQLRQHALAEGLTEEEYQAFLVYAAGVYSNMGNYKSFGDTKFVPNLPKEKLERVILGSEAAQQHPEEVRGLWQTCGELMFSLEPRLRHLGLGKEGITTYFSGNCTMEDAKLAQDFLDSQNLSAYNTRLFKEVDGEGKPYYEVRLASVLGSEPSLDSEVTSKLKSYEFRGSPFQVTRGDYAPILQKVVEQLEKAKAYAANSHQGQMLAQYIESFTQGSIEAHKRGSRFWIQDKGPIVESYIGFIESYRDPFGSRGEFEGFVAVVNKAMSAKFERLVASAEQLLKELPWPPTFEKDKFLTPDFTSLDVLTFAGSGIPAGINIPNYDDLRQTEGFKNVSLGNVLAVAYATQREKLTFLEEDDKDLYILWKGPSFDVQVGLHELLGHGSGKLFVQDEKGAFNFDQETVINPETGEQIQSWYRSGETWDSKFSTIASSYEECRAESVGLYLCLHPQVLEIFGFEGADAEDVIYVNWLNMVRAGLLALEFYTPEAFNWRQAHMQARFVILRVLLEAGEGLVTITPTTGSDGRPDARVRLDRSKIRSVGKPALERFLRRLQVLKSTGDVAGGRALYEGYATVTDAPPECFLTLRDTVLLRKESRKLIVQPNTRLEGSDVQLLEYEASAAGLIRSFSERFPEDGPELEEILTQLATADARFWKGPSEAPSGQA

[1] = tested on: healthy mice injected with DPP3; experiment: Effect of Valsartan in healthy mice injected with DPP3; assay type: in vivo, Black 6 mice
Method: In this experiment, healthy Black 6 mice (8-12 weeks, group size refer to table 8) consumed water with 50 mg/kg Valsartan per day or just water (Table 8) for a period of two weeks. Subsequently, both groups received an intravenous injection of native DPP3 (600 μg/kg) and the shortening fraction was assessed according to Gao et al., 2011 at 15, 60 and 120 minutes (FIG. 12).

[2] = target: T2, native human DPP3 from blood cells (human, UniProt Q9NY33 2-737); experiment: cell-based or functional assay
T2 sequence: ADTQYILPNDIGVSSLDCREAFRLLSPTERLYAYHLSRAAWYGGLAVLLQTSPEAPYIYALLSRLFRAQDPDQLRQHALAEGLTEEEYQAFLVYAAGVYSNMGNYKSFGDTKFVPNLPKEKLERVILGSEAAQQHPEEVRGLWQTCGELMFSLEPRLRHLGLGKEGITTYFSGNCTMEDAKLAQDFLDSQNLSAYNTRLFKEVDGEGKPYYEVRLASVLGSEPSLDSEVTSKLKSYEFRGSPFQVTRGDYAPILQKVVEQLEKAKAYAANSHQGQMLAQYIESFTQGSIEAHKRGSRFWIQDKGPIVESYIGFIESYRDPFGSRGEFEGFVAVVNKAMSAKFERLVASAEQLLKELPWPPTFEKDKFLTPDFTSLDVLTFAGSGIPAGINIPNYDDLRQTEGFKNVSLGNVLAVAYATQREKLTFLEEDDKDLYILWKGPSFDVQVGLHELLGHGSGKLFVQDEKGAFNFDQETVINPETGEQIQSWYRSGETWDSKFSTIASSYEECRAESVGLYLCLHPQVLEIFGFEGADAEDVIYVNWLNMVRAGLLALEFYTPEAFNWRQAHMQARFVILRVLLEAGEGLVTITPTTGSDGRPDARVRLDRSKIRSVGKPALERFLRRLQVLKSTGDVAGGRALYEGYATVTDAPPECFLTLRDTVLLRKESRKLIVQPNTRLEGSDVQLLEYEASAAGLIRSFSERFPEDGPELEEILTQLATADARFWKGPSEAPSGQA

healthy mice = experiment: Effect of native DPP3 injection in healthy mice; assay type: in vivo, Black 6 mice; conditions: 600 μg/kg i.v., versus PBS
Method: Wild type Black 6 mice (8-12 weeks, group size refer to table 3) were acclimated during 2 weeks and a baseline echocardiography was done. The mice were randomly allocated to one of the two groups and, subsequently, native DPP3 protein or PBS were injected intravenously via a retro-orbital injection with a dose of 600 μg/kg for DPP3 protein.
After DPP3 or PBS injection, cardiac function was assessed by echocardiography (Gao et al. 2011) and renal function assessed by renal resistive index (Lubas et al., 2014, Dewitte et al, 2012) at 15, 60 and 120 minutes (FIG. 3).

In the case of Cc1cc(=O)c2c(cc(O)c3c4c(O)cccc4c(=O)c32)c1=O [Fluostatin A], the “inhibition of DPP3 activity” value (DPP3) is listed as “strongly inhibit DPP3 activity”.

For CC1C(=O)c2cc(O)c3c(c2C(O)C1O)C(=O)c1cccc(O)c1-3 (stereo not drawn) [Fluostatin B], the “inhibition of DPP3 activity” value (DPP3) is listed as “strongly inhibit DPP3 activity”.

In the case of CCCCC(=O)N(Cc1ccc(-c2ccccc2-c2nnn[nH]2)cc1)[C@H](C(=O)O)C(C)C [Valsartan], the “shortening fraction after DPP3 injection” value ([1]; 50 mg/kg Valsartan per day in water for two weeks, then native DPP3 600 μg/kg i.v.) is reported as “rescued; also recorded: no signs of heart dysfunction”.

B1: murine monoclonal anti-DPP3 antibody AK1967 (antibody, V domains shown)
VH: QVTLKESGPGILQPSQTLSLTCSFSGFSLSTSGMSVGWIRQPSGKGLEWLAHIWWNDNKSYNPALKSRLTISRDTSNNQVFLKIASVVTADTGTYFCARNYSYDYWGQGTTLTVSS
VL: DVVVTQTPLSLSVSLGDPASISCRSSRSLVHSIGSTYLHWYLQKPGQSPKLLIYKVSNRFSGVPDRFSGSGSGTDFTLKISRVEAEDLGVYFCSQSTHVPWTFGGGTKLEIK
In the case of B1, the “IC50 (read off the curve)” value [2] is reported as roughly 10 ng/mL.

B2: native DPP3: native human DPP3 purified from human erythrocyte lysate (protein)
chain: ADTQYILPNDIGVSSLDCREAFRLLSPTERLYAYHLSRAAWYGGLAVLLQTSPEAPYIYALLSRLFRAQDPDQLRQHALAEGLTEEEYQAFLVYAAGVYSNMGNYKSFGDTKFVPNLPKEKLERVILGSEAAQQHPEEVRGLWQTCGELMFSLEPRLRHLGLGKEGITTYFSGNCTMEDAKLAQDFLDSQNLSAYNTRLFKEVDGEGKPYYEVRLASVLGSEPSLDSEVTSKLKSYEFRGSPFQVTRGDYAPILQKVVEQLEKAKAYAANSHQGQMLAQYIESFTQGSIEAHKRGSRFWIQDKGPIVESYIGFIESYRDPFGSRGEFEGFVAVVNKAMSAKFERLVASAEQLLKELPWPPTFEKDKFLTPDFTSLDVLTFAGSGIPAGINIPNYDDLRQTEGFKNVSLGNVLAVAYATQREKLTFLEEDDKDLYILWKGPSFDVQVGLHELLGHGSGKLFVQDEKGAFNFDQETVINPETGEQIQSWYRSGETWDSKFSTIASSYEECRAESVGLYLCLHPQVLEIFGFEGADAEDVIYVNWLNMVRAGLLALEFYTPEAFNWRQAHMQARFVILRVLLEAGEGLVTITPTTGSDGRPDARVRLDRSKIRSVGKPALERFLRRLQVLKSTGDVAGGRALYEGYATVTDAPPECFLTLRDTVLLRKESRKLIVQPNTRLEGSDVQLLEYEASAAGLIRSFSERFPEDGPELEEILTQLATADARFWKGPSEAPSGQA
For B2, the “shortening fraction after DPP3 injection” value ([1]; native DPP3 600 μg/kg i.v., no Valsartan) was “significant decrease in the shortening fraction”, the renal resistive index (healthy mice) was “renal resistive index increase” and the shortening fraction (healthy mice) was “significantly reduced shortening fraction”. The renal resistive index (healthy mice; listed as DPP3) was “increased renal resistive index” and the shortening fraction (healthy mice; listed as DPP3) was “shortening fraction reduction”.
